Measured values reported in patent US20190248902A1 (published 2019).
Changes are numbered by the printed parent chain.

T1: recombinant, soluble human ASGR-1 (human, UniProt P07306 62-291)
T1 construct: biotinylated in the binning assay; also called soluble huASGR-1; Soluble ASGR-1 (Amgen)
T1 sequence: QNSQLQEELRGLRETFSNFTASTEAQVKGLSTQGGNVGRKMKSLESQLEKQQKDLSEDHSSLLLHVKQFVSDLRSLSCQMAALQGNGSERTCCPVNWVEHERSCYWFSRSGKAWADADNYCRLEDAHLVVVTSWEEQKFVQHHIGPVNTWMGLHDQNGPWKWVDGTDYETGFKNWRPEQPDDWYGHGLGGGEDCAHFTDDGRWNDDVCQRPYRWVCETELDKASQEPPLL

B1: 63A10 (antibody, V domains shown)
VH: EVQLVESGGGLVQPGGSLRLSCAASGFTFSSYSMNWVRQAPGKGLEWVSYISSSTSTIYYAASVKGRFTISRDNAKNSLYLQMNSLRDEDTAVYYCARDHRYYDSSGYYSDAFDIWGQGTMVTVSS
VL: NFMLTQPHSVSESPGKTVTISCTRSNGSIVSNYVQWYQQRPGSSPTTVIYEDKRRPSGVPDRFSGSIDSSSNSASLTISGLKTEDEADYYCQSYDSINVVFGGGTKLTVL
notes: hybridoma mAb
B2: 63G7 (antibody, V domains shown)
VH: B1 VH
VL: B1 VL with V48M, K53S, Y90S, S96G
notes: hybridoma mAb
B3: 64B12 (antibody, V domains shown)
VH: QLQLQESGPGLVKPSETLSLTCTVSGVSISRSSYYWGWIRQPPGKGLEWIGSIYYSGSTSYNPSLKSRVTISVDTSKNQFSLKLSSVTAADTAVYYCARLDSGWSFDYWGQGTLVTVSS
VL: DIQMTQSPSSLSASVGDRVTITCRASQDISNYLNWYQQKPGTAPNLLISDASILETGVPSTFSGSGSGTDFTFTISSLQPEDIATYYCQQSDNLPCSFGQGTKVEIK
notes: hybridoma mAb
B4: 65F10 (antibody, V domains shown)
VH: QVQLVQSGAEVKKPGASVKVSCKASGYTFTGYHMHWVRQAPGQGLEWMGWINPNNGGTSYAQKFQDRVNMTRDTSISTAYMELSRLRSDDTAVYYCARDSRSSWDYWGQGTLVTVSS
VL: DIQMTQSPSSVSASVGDRVTITCRGGQGISTWLAWYQQKPGKAPKLLIYAASILQSGVPSRFRGRGSGTDFTLTISSLQPEDFATYYCQQGNIFPFTFGRGTKVDIK
notes: hybridoma mAb
B5: 68G6 (antibody, V domains shown)
VH: QVQLVQFGGEVKKPGSSVKVSCKASGYTFTGYYMHWVRQAPGQGLEWMGSIYRNSGGTNYAQKFQGRVTMTRDKSISTAYMEKSRIRSDDTAVYYCARAFYYGSGTYYNEFDYWGQGTLVTVSS
VL: SYEVTQPPSVSVSPGQTASITCSGDKLGDKYTYWYQQKAGQSPFLVIYQDRKRPSGIPDRFSGSNSGNTATLTISGTQAMDAADFYCQAWDNSTAVFGGGTKLTVL
notes: hybridoma mAb
B6: 6D9 (antibody, V domains shown)
VH: EVQLVESGGGLVKPGGSLRLSCAASGFTFSNAWMNWVRLAPGKGLEWVGRIKSKTDGGTTDYAAPVKGRFTISRDDSENTLYLQMNSLKTEDTAVYYCSTDTGPIAARLAYYYYYAMDVWGQGTTVTVSS
VL: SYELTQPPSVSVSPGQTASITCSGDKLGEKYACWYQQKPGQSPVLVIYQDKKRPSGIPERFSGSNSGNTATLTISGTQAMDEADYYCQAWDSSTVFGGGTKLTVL
notes: hybridoma mAb
B7: 6G6 (antibody, V domains shown)
VH: QVQLVQSGAEVRKPGASVKVSCKASGYTFTNYDINWVRQATGQGPEWMGWMHPNSGNTGYAKKFQGRVTMTRNTSISAAYMVLSSLRSEDTAVYYCALSSGWYYFDYWGQGTLVTVSS
VL: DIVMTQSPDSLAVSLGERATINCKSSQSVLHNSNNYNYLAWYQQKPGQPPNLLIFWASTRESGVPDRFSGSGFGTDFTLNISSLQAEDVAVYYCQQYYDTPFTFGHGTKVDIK
notes: hybridoma mAb
B8: 7E11 (antibody, V domains shown)
VH: QVQLVESGGGVVQPGRSLRLSCAASGFTFSSFGMHWVRQAPGKGLEWVAIIWHDGSNKYYADSVKGRFTISRDNSNNTLYLQMSSLRAEDTAVYYCARDLSMGGMDVWGQGTTVTVSS
VL: DIQMTQSPSSLSASVGDRVTIACRASQNIISYLNWYQQKPGKAPKFLIYTASSLQSGVPSRFSGSGSGTDFTLTISSLQPEDFAIYYCQQTYSTPLTFGGGTKVEIK
notes: hybridoma mAb
B9: 7F4 (antibody, V domains shown)
VH: B3 VH with V27G, S52N, S58A, S60Y, K77T, L100H, D101S, S102G, G103S, F106L
VL: DIQMTQSPSSLSASVGDRVTITCRTSQGIRNDLGWYQQKPGKAPKRLIYAASNLQSGVPSRFSGSGSGTEFTLTISSLQPEDFATYYCLQHSAYPLTFGGGTKVEIK
notes: hybridoma mAb
B10: 9G9 (antibody, V domains shown)
VH: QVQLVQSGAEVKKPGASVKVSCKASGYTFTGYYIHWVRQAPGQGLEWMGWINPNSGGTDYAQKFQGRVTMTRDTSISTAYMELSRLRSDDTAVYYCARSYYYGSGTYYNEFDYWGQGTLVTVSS
VL: QSVLTQPPSASGTPGQRVNMSCSGTNSNIGSYTVNWYQQLPGTAPKLLIYINNQRPSGVPDRFSGSKSGTSASLAISGLQSEDEADYYCAAWDDSLNGHVVFGGRTKLTVL
notes: hybridoma mAb
B11: 147D10 (antibody, V domains shown)
VH: EVQLLESGGGLVQPGGSLRLSCAASGFTFSSYAMSWVRQAPGKGLEWVSAISGRGGNTFYADSVKGRFTISRDNSKNTLYLQMNSLRAEDTAVYYCAKKDYDYVWGSPYFDYWGQGTLVTVSS
VL: DIQMTQSPASVSASVGDRVTITCRASQNISNWLTWYQQKPGKAPKLLIYAASSLQSGVPSRFSGSGSGTDFTLSISSLQPEDFATYYCQQTDSFPFTFGPGTKVDVK
notes: hybridoma mAb
B12: 149D11 (antibody, V domains shown)
VH: B11 VH with L81R
VL: B11 VL
notes: hybridoma mAb
B13: 149F8 (antibody, V domains shown)
VH: B11 VH
VL: B11 VL with N28G, T34A, S65N, G66E, T85I
notes: hybridoma mAb
B14: 48B12 (antibody, V domains shown)
VH: EVQLLESGGGLVQPGGSLRLSCAASGFTFSSYAMNWVRQAPGKGLEWVSAISGRGGNTFYADSVKGRFTISRDNSKNTLYLQMNSLRAEDTAVYYCAKRETYNWNYEGFDYWGQGTLVTVSS
VL: SYELTQPPSVSVSPGQTARITCSGDALPKKYAYWYQQKSGQAPVLVIYEDSKRPSGIPERFSGSSSGTMATLTISGAQVEDEADYYCNSTDSSGNHVVFGGGTKLTVL
notes: hybridoma mAb
B15: 52H2 (antibody, V domains shown)
VH: EVQLLESGGGLVQPGGSLRLSCAASGFTFSRNAMSWVRQAPGMGLEWVSAISGRGGNTFYADSVKGRFTVSRDNSKNTLFLQMNSLRAEDTAVYYCAKNGREQWLDYWGQGTLVTVSS
VL: DIQMTQSPSSVSASVGDRVTITCRASQNITNWLAWFQQKPGRAPKLLIYTTSSLQSGVPSRFSGSGSGTDFTLTISSLQPEDFATYCCQQTNSFPWTFGHGTKVEVK
notes: hybridoma mAb
B16: 6G7 (antibody, V domains shown)
VH: QVQLVESGGGVVQPGRSLRLSCAASGFTFSSYGMHWVRQTPGKGLEWVAIISYVGKNKYYADSVKGRFTISRDNSKNTLYLQMNSLRAEDTAVYYCARRGNSYGGYGMDVWGQGTTVTVSS
VL: DIQMTQSPSSRSASVGDRVTITCQASQDISNYLNWCQQKPGKALKLLIYDASTLETGVPSRFSGSGSGTDFTFTISSVQPEDIATYYCQQYDNVPITFGQGTRLEIK
notes: hybridoma mAb
B17: 64G12 (antibody, V domains shown)
VH: EVQLLESGGGLVQPGGSLRLSCAASGFTFSSNAMSWVRQAPGKGLEWVSVISGSGGSTYYADSVKGRFTISRDNSKNTLYLQMNSLRAEDTALYYCAKRNYDDAFDIWGQGTMVTVSS
VL: DIQMTQSPSSVSASVGDRVTITCRASQNITTWLAWYQQKPGKAPKLLISAASSLQSGVPSRFSGSGSGTDFTLTISSLQPEDFATYICQQANSFPFTFGPGTKLDIK
notes: hybridoma mAb
B18: 72F5 (antibody, V domains shown)
VH: EVQLLESGGGLVQPGGSLRLSCAASGFTFSSYAMIWVRQAPGKGLEWVSTISGSGGYTYSADSVKGRFTISRDNSKNTLYLQMNSLRAEDTAVYYCARRIAVTGTEWYDPWGQGTLVTVSS
VL: DIQMTQSPSSLSASVGDRVIIPCRASQNISSYLNWYQQKPGKAPKLLIYAASSLQSGVPSRFSGSGSGTDFTLTISSLQPEDFATYSCQQTYSTPTFGQGTRLDIN
notes: hybridoma mAb
B19: 147E9 (antibody, V domains shown)
VH: EVQLVESGGGLVQPGGSLRLSCAASGFTFSSYSMNWVRQAPGKGLEWVSSISGRNTTIYYADSVKGRFTISRDNAKNSLYLQMNSLRDEDTAVYYCSRDRGSCWGQGTLVTVSS
VL: DIQMTQSPSSLSASVGDRVTITCRASQDINNYLAWFQQKPGKAPKSLIVAASSLQSGVPSKFSGSGSGTDFTLTISSLQPEDFATYYCQQYNSYPLTFGGGTKVEIK
notes: hybridoma mAb

Each binder was assayed against T1, recombinant, soluble human ASGR-1 (assay: Octet BLI dissociation, pH 7.4 minus calcium).
Summary of the method: (§1)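 Antibodies were captured on anti-human Fc biosensors, and soluble ASGR-1 (6 ug/ml) was associated for 2 min in Tris buffer containing 1 mM CaCl2 at pH 7.4, followed by 10 min dissociation under each test condition. The signal at the end of association was set as 100%. Percent ASGR-1 still bound after 1 min of dissociation was compared with the pH 7.4 plus calcium control, and >10% extra dissociation was scored as sensitive.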

| Binder | % Change Compared to pH 7.4 + Calcium [%] |
| --- | --- |
| B1 | 8 |
| B2 | 20 |
| B3 | 6 |
| B4 | 25 |
| B5 | 22 |
| B6 | 14 |
| B7 | 1 |
| B8 | 9 |
| B9 | 4 |
| B10 | 25 |
| B11 | 13 |
| B12 | 11 |
| B13 | 1 |
| B14 | 4 |
| B15 | 26 |
| B16 | 8 |
| B17 | 24 |
| B18 | 64 |
| B19 | 5 |

These binders were tested against T1, recombinant, soluble human ASGR-1 (assay: Octet BLI dissociation, pH 5.6 plus calcium).
Summary of the method: as §1

| Binder | % Change Compared to pH 7.4 + Calcium [%] |
| --- | --- |
| B1 | 3 |
| B2 | 15 |
| B3 | 6 |
| B4 | 18 |
| B5 | 39 |
| B6 | 25 |
| B7 | -3 |
| B8 | 5 |
| B9 | 6 |
| B10 | 38 |
| B11 | 4 |
| B12 | 3 |
| B13 | -8 |
| B14 | -6 |
| B15 | 11 |
| B16 | 4 |
| B17 | 10 |
| B18 | 20 |
| B19 | -4 |

Each binder was assayed against T1, recombinant, soluble human ASGR-1 (assay: Octet BLI dissociation, pH 5.6 minus calcium).
Summary of the method: as §1

| Binder | % Change Compared to pH 7.4 + Calcium [%] |
| --- | --- |
| B1 | 47 |
| B2 | 59 |
| B3 | 7 |
| B4 | 37 |
| B5 | 47 |
| B6 | 42 |
| B7 | 0 |
| B8 | 14 |
| B9 | 9 |
| B10 | 55 |
| B11 | 11 |
| B12 | 11 |
| B13 | -1 |
| B14 | 0 |
| B15 | 32 |
| B16 | 16 |
| B17 | 24 |
| B18 | 30 |
| B19 | 20 |
